Test results published in EP4725970A1 (Fortvita Biologics Inc., dated 2026).
Numbering of substitutions follows the chain as printed. Like-named read-outs stand apart in the source and are kept apart here.

T1: cyno CD3E&G-His/Free (cynomolgus monkey, UniProt Q95LI5 22-117; Q95LI7 23-113)
T1 construct: Bought recombinant heterodimer; also called monkey CD3 E&G
T1 sequence (looked up) 1: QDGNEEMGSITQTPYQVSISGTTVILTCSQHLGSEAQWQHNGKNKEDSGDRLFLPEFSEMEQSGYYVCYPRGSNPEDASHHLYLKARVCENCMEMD
T1 sequence (looked up) 2: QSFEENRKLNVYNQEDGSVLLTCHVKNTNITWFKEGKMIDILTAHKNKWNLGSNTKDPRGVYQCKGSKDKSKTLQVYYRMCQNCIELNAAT

T2: human BCMA (full-length, on cells) (human, UniProt Q02223 1-184)
T2 sequence: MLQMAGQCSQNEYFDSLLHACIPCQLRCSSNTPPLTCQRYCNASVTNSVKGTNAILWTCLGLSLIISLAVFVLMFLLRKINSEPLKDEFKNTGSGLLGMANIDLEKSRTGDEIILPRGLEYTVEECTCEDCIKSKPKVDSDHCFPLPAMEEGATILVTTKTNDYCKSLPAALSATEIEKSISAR

B1: Roche-GPRC5D/CD3 (bispecific antibody)
light 1: DIVLTQSPALAVSPGQRATISCRASQSVSISGINLMNWYQQKPGQQPKLLIYHASILASGIPTRFSGSGSGTDFTLTIDPVQADDIATYYCQQTRESPLTFGSGTNLEIKRTVAAPSVFIFPPSDRKLKSGTASVVCLLNNFYPREAKVQWKVDNALQSGNSQESVTEQDSKDSTYSLSSTLTLSKADYEKHKVYACEVTHQGLSSPVTKSFNRGEC
light 2: EVQLLESGGGLVQPGGSLRLSCAASGFTFSTYAMNWVRQAPGKGLEWVSRIRSKYNNYATYYADSVKGRFTISRDDSKNTLYLQMNSLRAEDTAVYYCVRHGNFGNSYVSWFAYWGQGTLVTVSSASVAAPSVFIFPPSDEQLKSGTASVVCLLNNFYPREAKVQWKVDNALQSGNSQESVTEQDSKDSTYSLSSTLTLSKADYEKHKVYACEVTHQGLSSPVTKSFNRGEC
heavy 1: ELQLEQSGGGLVQPGGSLTLSCAASGFTFSKYAMAWVRQAPTKGLEWVASISTGGVNTYYRDSVKARFTISRDNAKNTQYLQMDSLRSEDTATYYCATHTGDYFDYWGQGVMVTVSSASTKGPSVFPLAPSSKSTSGGTAALGCLVEDYFPEPVTVSWNSGALTSGVHTFPAVLQSSGLYSLSSVVTVPSSSLGTQTYICNVNHKPSNTKVDEKVEPKSCDKTHTCPPCPAPEAAGGPSVFLFPPKPKDTLMISRTPEVTCVVVDVSHEDPEVKFNWYVDGVEVHNAKTKPREEQYNSTYRVVSVLTVLHQDWLNGKEYKCKVSNKALGAPIEKTISKAKGQPREPQVCTLPPSRDELTKNQVSLSCAVKGFYPSDIAVEWESNGQPENNYKTTPPVLDSDGSFFLVSKLTVDKSRWQQGNVFSCSVMHEALHNHYTQKSLSLSPGK
heavy 2: not shown
notes: GPRC5D/CD3 bispecific derived from WO 2019/154890 A1
B2: F2 (87) (F2-SP34.87-SC38497) (trispecific antibody, human IgG1, kappa, lambda, L234A L235A)
heavy 1: not shown
light 1: DIVMTQSPDSLAVSLGERATINCRASESVDSYGITFMNWYQQKPGQPPKLLIYAASNQGSGVPDRFSGSGSGTDFTLTISSLQAEDVAVYYCQQSKEVPWTFGQGTKLEIKRTVAAPSVFIFPPSDEQLKSGTASVVCLLNNFYPREAKVQWKVDNALQSGNSQESVTEQDSKDSTYSLSSTLTLSKADYEKHKVYACEVTHQGLSSPVTKSFNRGEC
heavy 2: EVQLVESGGGLVQPGGSLKLSCAASGFTFNTYAMNWVRQASGKGLEWVGRIRSKYNNYATYYADSVKDRFTISRDDSKSTLYLQMNSLKTEDTAVYYCARHYNFGQSYVSWFAYWGQGTTVTVSSASTKGPSVFPLAPSSKSTSGGTAALGCLVKDYFPEPVTVSWNSGALTSGVHTFPAVLQSSGLYSLSSVVTVPSSSLGTQTYICNVNHKPSNTKVDKKVEPKSCDKTHTCPPCPAPEAAGGPSVFLFPPKPKDTLMISRTPEVTCVVVDVSHEDPEVKFNWYVDGVEVHNAKTKPREEQYNSTYRVVSVLTVLHQDWLNGKEYKCKVSNKALPAPIEKTISKAKGQPREPQVYTLPPSRDELTKNQVSLSCAVKGFYPSDIAVEWESNGQPENNYKTTPPVLDSDGSFFLVSKLTVDKSRWQQGNVFSCSVMHEALHNHYTQKSLSLSPGAGGGGSGGGGSDIQMTQSPSSLSASVGDRVTITCRASQSISRYLNWYQQKPGKAPKLLIYAASSLQSGVPSRFSGSGSGTDFTLTISSLQPEDFATYYCQQKYFDITFGCGTKVEIKGGGGSGGGGSGGGGSQLQLQESGPGLVKPSETLSLTCTVSGGSIVSSSYYWTWIRQPPGKCLEWIGSISIAGSTYYNPSLKSRVTISVDTSKNQFSLKLSSVTAADTAVYYCARDRGDQILDVWSQGTMVTVSS
light 2: QAVVTQEPSLTVSPGGTVTLTCRSSTGAVTTSNYANWVQQKPGQAPRGLIGGTNKRAPGVPARFSGSLLGDKAALTLLGAQPEDEAEYYCALWYSNLWVFGQGTKLTVLGQPKAAPSVTLFPPSSEELQANKATLVCLISDFYPGAVTVAWKADSSPVKAGVETTTPSKQSNNKYAASSYLSLTPEQWKSHRSYSCQVTHEGSTVEKTVAPTECS
B3: Inno-G (hz5E12_sp34.24_Hel_triFab) (trispecific antibody, human IgG1, kappa, lambda, L234A L235A)
heavy 1: not shown
light 1: B2 light 1
heavy 2: not shown
light 2: DIQMTQSPSSLSASVGDRVTITCRASQSISSYLNWYQDKPGKAPKLLIYAASSLQSGVPSRFSGSGSGTDFTLTISSLQPEDFATYYCQQADLPAFAFGGGTKVEIKRTVAAPSVFIFPPSDECLKSGTASVVCLLNNFYPREAKVQWKVDNALQSGNSQESVTEQDSKDSTYSLSSTLTLSKADYEKHKVYACEVTHQGLSSPVTKSFNRGES
light 3: B2 light 2 with Q40K
B4: B3 (87) (hz5E12_sp34.87_497_triFab) (trispecific antibody, human IgG1, kappa, lambda, L234A L235A)
heavy 1: not shown
light 1: B2 light 1
heavy 2: not shown
light 2: DIQMTQSPSSLSASVGDRVTITCRASQSISRYLNWYQDKPGKAPKLLIYAASSLQSGVPSRFSGSGSGTDFTLTISSLQPEDFATYYCQQKYFDITFGGGTKVEIKRTVAAPSVFIFPPSDECLKSGTASVVCLLNNFYPREAKVQWKVDNALQSGNSQESVTEQDSKDSTYSLSSTLTLSKADYEKHKVYACEVTHQGLSSPVTKSFNRGES
light 3: B2 light 2 with Q40K
notes: also called Exemplary antibody No. 2
B5: B3b (87) (497(GLS)_sp34.87_5E12_triFab) (trispecific antibody, human IgG1, kappa, lambda, L234A L235A)
heavy 1: not shown
light 1: not shown
heavy 2: not shown
light 2: B2 light 1 with Q42D, Q128C, C218S
light 3: B2 light 2 with Q40K
notes: also called Exemplary antibody No. 4
B6: F2 (24) (F2-SP34.24-SC38497) (trispecific antibody, human IgG1, kappa, lambda, L234A L235A)
heavy 1: not shown
light 1: B2 light 1
heavy 2: B2 heavy 2 with Y102G
light 2: B2 light 2

Legend:
[1] = biological target: T3, human GPRC5D (full-length, on cells) (human, UniProt Q9NZD1 1-345); assay: cell-based or functional assay
[2] = biological target: T3, human GPRC5D (full-length, on cells); assay: cell-based or functional assay; remark: listed apart in the source
[3] = biological target: T4, human CD3 (on Jurkat cells and human T cells) (human, UniProt P07766 23-207); assay: flow cytometry, Jurkat cells
T4 construct: whole, on cells; the other chains of the complex on the cells are not described; also called CD3E

[4] = biological target: T4, human CD3 (on Jurkat cells and human T …); assay: flow cytometry, human CD4 T cells
[5] = biological target: T4, human CD3 (on Jurkat cells and human T …); assay: flow cytometry, human CD8 T cells
[6] = biological target: T3, human GPRC5D (full-length, on cells); assay: flow cytometry, GS-CHO-hGPRC5D cells
[7] = biological target: T3, human GPRC5D (full-length, on cells); assay: flow cytometry, GS-CHO-hGPRC5D cells; remark: listed apart in the source
[8] = biological target: T5, human CD3E&G-His/Free (human, UniProt P07766 23-126; P09693 23-116); assay: BLI (Octet), 1:1 fit
T5 construct: Bought recombinant heterodimer; 'His/Free' as printed (one chain His-tagged); also called human CD3 E&G heterodimer

[9] = biological target: T1, cyno CD3E&G-His/Free; assay: BLI (Octet), 1:1 fit
[10] = biological target: T6, Cyno BCMA-His (cynomolgus monkey, UniProt A0A2K5UD97 1-53); assay: BLI (Octet), 1:1 fit
T6 construct: also called Cyno BCMA (ACRO BCA-C52H7); monkey BCMA

[11] = biological target: T2, human BCMA (full-length, on cells); assay: cell-based or functional assay
[12] = biological target: T2, human BCMA (full-length, on cells); assay: cell-based or functional assay; remark: listed apart in the source
[13] = biological target: T2, human BCMA (full-length, on cells); assay: cell-based or functional assay; remark: listed apart in the source
[14] = biological target: T3, human GPRC5D (full-length, on cells); assay: cell-based or functional assay; remark: listed apart in the source
[15] = biological target: T2, human BCMA (full-length, on cells); assay: flow cytometry, GS-CHO-hBCMA cells
[16] = biological target: T2, human BCMA (full-length, on cells); assay: flow cytometry, GS-CHO-hBCMA cells; remark: listed apart in the source
[17] = biological target: T7, cynomolgus monkey BCMA (full-length, on cells) (cynomolgus monkey, UniProt A0A2K5UD97 1-183); assay: flow cytometry, GS-CHO-cynoBCMA cells
T7 construct: whole, on cells; also called cynoBCMA; GS-CHO-cynoBCMA

[18] = biological target: T8, cynomolgus monkey GPRC5D (full-length, on cells) (cynomolgus monkey, UniProt A0A2K5W6I7 1-300); assay: flow cytometry, GS-CHO-cynoGPRC5D cells
T8 construct: also called cynoGPRC5D; GS-CHO-cynoGPRC5D

[19] = biological target: T3, human GPRC5D (full-length, on cells); assay: cell-based or functional assay; remark: listed apart in the source

T3 sequence (Q9NZD1 whole entry): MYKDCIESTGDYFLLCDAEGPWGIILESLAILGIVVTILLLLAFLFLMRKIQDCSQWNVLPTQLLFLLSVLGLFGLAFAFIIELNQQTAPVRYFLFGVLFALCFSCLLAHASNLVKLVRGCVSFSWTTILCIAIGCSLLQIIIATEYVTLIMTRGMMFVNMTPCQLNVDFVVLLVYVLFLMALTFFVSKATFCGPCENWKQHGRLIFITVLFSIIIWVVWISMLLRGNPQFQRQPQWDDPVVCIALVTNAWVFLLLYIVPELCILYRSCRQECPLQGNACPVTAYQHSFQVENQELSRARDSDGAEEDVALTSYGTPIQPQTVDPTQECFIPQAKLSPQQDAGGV
T6 sequence (A0A2K5UD97 entry or part of it): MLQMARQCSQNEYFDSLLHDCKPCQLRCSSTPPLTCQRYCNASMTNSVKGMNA
T5 sequence (P07766 23-126, chain 1 of 2): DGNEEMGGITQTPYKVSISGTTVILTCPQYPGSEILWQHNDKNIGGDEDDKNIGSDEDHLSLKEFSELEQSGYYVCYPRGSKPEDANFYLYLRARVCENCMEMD
T5 sequence (P09693 23-116, chain 2 of 2): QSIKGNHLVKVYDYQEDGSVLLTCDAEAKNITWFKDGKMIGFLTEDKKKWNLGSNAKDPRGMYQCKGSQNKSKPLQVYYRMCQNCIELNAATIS
T4 sequence (P07766 23-207): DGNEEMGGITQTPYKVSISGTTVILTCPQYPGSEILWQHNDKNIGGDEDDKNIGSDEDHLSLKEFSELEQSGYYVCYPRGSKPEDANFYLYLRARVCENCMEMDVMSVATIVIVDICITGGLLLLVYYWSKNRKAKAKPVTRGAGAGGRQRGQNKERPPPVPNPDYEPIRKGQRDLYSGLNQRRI
T7 sequence (A0A2K5UD97 entry or part of it): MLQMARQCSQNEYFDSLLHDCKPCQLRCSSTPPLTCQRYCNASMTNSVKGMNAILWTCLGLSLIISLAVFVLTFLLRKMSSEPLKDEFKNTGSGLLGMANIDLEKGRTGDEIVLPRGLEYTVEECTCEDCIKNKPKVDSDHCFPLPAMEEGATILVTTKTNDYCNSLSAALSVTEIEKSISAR
T8 sequence (A0A2K5W6I7 entry or part of it limits assumed, form in doubt): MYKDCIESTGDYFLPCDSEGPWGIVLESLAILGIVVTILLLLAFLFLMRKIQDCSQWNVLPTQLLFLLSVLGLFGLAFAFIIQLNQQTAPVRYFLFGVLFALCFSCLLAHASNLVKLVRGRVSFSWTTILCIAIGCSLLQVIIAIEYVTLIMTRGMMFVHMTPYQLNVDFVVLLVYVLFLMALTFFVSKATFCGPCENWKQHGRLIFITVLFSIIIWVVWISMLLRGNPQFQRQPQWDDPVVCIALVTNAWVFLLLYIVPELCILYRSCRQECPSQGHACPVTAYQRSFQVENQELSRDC

Binder	EC50 of PBMC killing of H929 ko BCMA cells (LDH) [1] [nM]	EC50 of PBMC killing of H929 ko BCMA cells, donor1 [2] [nM]	EC50 [3] [nM]	EC50 [4] [nM]	EC50 [5] [nM]	EC50 [6] [nM]	EC50 [7] [nM]	Kd [8] [nM]	koff [8] [s⁻¹]	kon [8] [M⁻¹ s⁻¹]	Kd [9] [nM]	koff [9] [s⁻¹]	kon [9] [M⁻¹ s⁻¹]	Kd [10] [nM]	koff [10] [s⁻¹]	kon [10] [M⁻¹ s⁻¹]	EC50 of PBMC killing of H929 ko GPRC5D cells (LDH) [11] [nM]	EC50 of PBMC killing of H929 ko GPRC5D cells (LDH) [12] [nM]	EC50 of PBMC killing of H929 ko GPRC5D cells, donor1 [13] [nM]	EC50 of PBMC killing of H929 ko BCMA cells (LDH) [14] [nM]	other results
B1	0.00419	0.00486	30.4	66.6	65.8	16	9.78	–	–	–	–	–	–	–	–	–	–	–	–	–	–
B2	0.0256	0.0342	–	–	–	98.6	94.1	55	0.0131	239000	71.1	0.0124	175000	1.55	0.000961	621000	0.0677	0.428	0.0304	0.00739	EC50 [15]: 120 nM; EC50 [16]: 211 nM; EC50 [17]: 117 nM; EC50 [18]: 196 nM
B3	–	–	–	–	–	–	–	–	–	–	–	–	–	–	–	–	–	–	–	–	EC50 of PBMC killing of L363 cells [19]: 0.355 nM
B4	–	0.0663	–	–	–	–	132	69.4	0.0151	218000	61.1	0.0131	214000	1.58	0.00122	773000	0.176	–	0.346	0.025	EC50 [15]: 37.7 nM
B5	–	0.879	–	–	–	–	95.9	–	–	–	–	–	–	–	–	–	–	–	0.14	–	–
B6	0.004	–	8.94	32.5	33.7	73.3	–	17.2	0.00765	445000	12.5	0.00597	476000	–	–	–	–	0.475	–	–	EC50 [16]: 142 nM; EC50 [17]: 83 nM; EC50 [18]: 108 nM
